Data: publication PMC9122588, “Control of bacterial immune signaling by a WYL domain transcription factor”

Molecular target: T1, Pa CapW (Pseudomonas aeruginosa PA17, UniProt P0DX74 1-299)
T1 sequence: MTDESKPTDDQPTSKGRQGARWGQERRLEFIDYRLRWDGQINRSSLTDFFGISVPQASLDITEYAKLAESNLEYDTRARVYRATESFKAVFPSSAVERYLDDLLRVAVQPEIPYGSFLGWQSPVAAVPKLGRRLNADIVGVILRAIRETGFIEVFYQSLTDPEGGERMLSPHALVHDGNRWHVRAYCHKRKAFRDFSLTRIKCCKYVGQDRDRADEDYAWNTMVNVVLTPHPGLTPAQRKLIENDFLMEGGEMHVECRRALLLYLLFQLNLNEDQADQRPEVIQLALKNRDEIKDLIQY
Experiment: fluorescence polarization; 5 mM MgCl2; FP: 25 mM Tris pH 8.5, 50 mM NaCl, 5% glycerol, 5 mM MgCl2, 1 mM DTT, 0.01% NP-40 substitute, 50 nM DNA, 10 min, RT; EMSA: 50 mM Tris-HCl pH 8.5, 50 mM NaCl, 5
Conditions: protein: recombinant; tags: N-terminal His6-TEV, cleaved; chain copies: 2; label: 5'-6-FAM on one strand; blunt

B1: Probe #4 (dsDNA)
DNA 1: CTAAAAACTATGCGTATAGTAATAATACGC
DNA 2: GCGTATTATTACTATACGCATAGTTTTTAG
  Kd: 1000 ± 100 nM
